The text below walks through data of publication PMC8115037, “Paracoccus denitrificans: a genetically tractable model system for studying respiratory complex I” (Scientific Reports, 2021).

What all share (format): biochemical, Paracoccus denitrificans
Details in all cases: FMN, FeS clusters

Substrate in data set [1]: CCCCCCCCCCC1=C(C)C(=O)C(OC)=C(OC)C1=O
Briefly: KM, NADH:DQ oxidoreduction by purified soluble enzyme.

Substrate in data set [2]: COC1=C(OC)C(=O)C(CC=C(C)C)=C(C)C1=O
Briefly: KM, quinone reduction by purified soluble enzyme.

Substrate in the data set “purified protein”: COC1=C(OC)C(=O)C(C/C=C(\C)CC/C=C(\C)CC/C=C(\C)CC/C=C(\C)CC/C=C(\C)CC/C=C(\C)CC/C=C(\C)CC/C=C(\C)CC/C=C(\C)CCC=C(C)C)=C(C)C1=O
The experiment in a line: purified protein.

B1: complex I (NADH:ubiquinone oxidoreductase), Pd-CI (Paracoccus denitrificans PD1222) (protein)
chain 1: MDGDIRKNSYDDGSMDALTGEQSIRNFNINFGPQHPAAHGVLRMVLELDGEIVERADPHIGLLHRGTEKLMESRTYLQNLPYLDRLDYVAPMNQEHAWCLAIERLTGTVIPRRASLIRVLYSEIGRILNHLMGVTTGAMDVGALTPPLWGFEAREELMIFYERACGARLHAAYFRPGGVHQDLPPDLLDDIEEWCERFPKLVDDLDTLLTENRIFKQRLVDIGIVTEADALDWGYTGVMVRGSGLAWDLRRSQPYECYDEFDFQIPVGRNGDCYDRYLCRMAEMRESCKIMQQAVQKLRAEPAGDVLARGKLTPPRRAEMKRDMESLIHHFKLYTEGFKVPAGEVYAAVEAPKGEFGVYLVADGTNKPWRAKLRAPGFAHLQSIDWMSRGHMLADVPAIIATLDIVFGEVDR
chain 2: MMTGLNTAGADRDLATAELNRELQDKGFLLTTTEDIINWARNGSLHWMTFGLACCAVEMMQTSMPRYDLERFGTAPRASPRQSDLMIVAGTLTNKMAPALRKVYDQMPEPRYVISMGSCANGGGYYHYSYSVVRGCDRIVPVDIYVPGCPPTAEALLYGILQLQRRIRRTGTLVR
chain 3: MAEFWASPYGFALSMLLQGLAVIAFVMGSLIFMVYGDRKIWAAVQMRRGPNVVGPWGLLQTFADALKYIVKEIVIPAGADKFVYFLAPFLSMMLALFAFVVIPFDEGWVMANINVGILFIFAASSLEVYGVIMGGWASNSKYPFLASLRSAAQMISYEVSLGLIIIGIIISTGSMNLTAIVEAQRGDYGLLNWYWLPHLPMVVLFFVSALAECNRPPFDLVEAESELVAGFMTEYSSTPYLLFMAGEYIAMYLMCALLSLLFFGGWLSPVPFIADGWWWMVIKMWFWFYMFAMVKAIVPRYRYDQLMRIGWKVFLPLSLGWVVLVAILARYEILGGFWARFAVGG
chain 4: MLNDQDRIFTNLYGMGDRSLAGAKKRGHWDGTAAIIQRGRDKIIDEMKASGLRGRGGAGFPTGMKWSFMPKESDGRPSYLVINADESEPATCKDREIMRHDPHTLIEGALIASFAMGAHAAYIYIRGEFIREREALQAAIDECYDAGLLGRNAAGSGWDFDLYLHHGAGAYICGEETALLESLEGKKGMPRMKPPFPAGAGLYGCPTTVNNVESIAVVPTILRRGAEWFASFGRPNNAGVKLFGLTGHVNTPCVVEEAMSIPMRELIEKHGGGIRGGWKNLKAVIPGGASCPVLTAEQCENAIMDYDGMRDVRSSFGTACMIVMDQSTDVVKAIWRLSKFFKHESCGQCTPCREGTGWMMRVMERLVRGDAEVEEIDMLFDVTKQVEGHTICALGDAAAWPIQGLIRNFREEIEDRIKAKRTGRMGAMAAE
notes: intact purified complex I, His6-tag on Nqo5; with multisubunit complex (14 core Nqo subunits plus PdNUMM, PdNUYM, PdN7BM)
As usually defined, the Km is the substrate concentration at which the rate is half of its maximum. Turning to B1, the Km worked out at 169 ± 15 µM in data set [1] and 124 ± 8 µM in data set [2].

B2: complex I (NADH:ubiquinone oxidoreductase), Pd-CI (Paracoccus denitrificans PD1222) (protein)
chain 1: MDGDIRKNSYDDGSMDALTGEQSIRNFNINFGPQHPAAHGVLRMVLELDGEIVERADPHIGLLHRGTEKLMESRTYLQNLPYLDRLDYVAPMNQEHAWCLAIERLTGTVIPRRASLIRVLYSEIGRILNHLMGVTTGAMDVGALTPPLWGFEAREELMIFYERACGARLHAAYFRPGGVHQDLPPDLLDDIEEWCERFPKLVDDLDTLLTENRIFKQRLVDIGIVTEADALDWGYTGVMVRGSGLAWDLRRSQPYECYDEFDFQIPVGRNGDCYDRYLCRMAEMRESCKIMQQAVQKLRAEPAGDVLARGKLTPPRRAEMKRDMESLIHHFKLYTEGFKVPAGEVYAAVEAPKGEFGVYLVADGTNKPWRAKLRAPGFAHLQSIDWMSRGHMLADVPAIIATLDIVFGEVDR
chain 2: MMTGLNTAGADRDLATAELNRELQDKGFLLTTTEDIINWARNGSLHWMTFGLACCAVEMMQTSMPRYDLERFGTAPRASPRQSDLMIVAGTLTNKMAPALRKVYDQMPEPRYVISMGSCANGGGYYHYSYSVVRGCDRIVPVDIYVPGCPPTAEALLYGILQLQRRIRRTGTLVR
chain 3: MAEFWASPYGFALSMLLQGLAVIAFVMGSLIFMVYGDRKIWAAVQMRRGPNVVGPWGLLQTFADALKYIVKEIVIPAGADKFVYFLAPFLSMMLALFAFVVIPFDEGWVMANINVGILFIFAASSLEVYGVIMGGWASNSKYPFLASLRSAAQMISYEVSLGLIIIGIIISTGSMNLTAIVEAQRGDYGLLNWYWLPHLPMVVLFFVSALAECNRPPFDLVEAESELVAGFMTEYSSTPYLLFMAGEYIAMYLMCALLSLLFFGGWLSPVPFIADGWWWMVIKMWFWFYMFAMVKAIVPRYRYDQLMRIGWKVFLPLSLGWVVLVAILARYEILGGFWARFAVGG
notes: purified complex I reconstituted in proteoliposomes, His6-tag on Nqo5; with multisubunit complex (14 core Nqo subunits plus PdNUMM, PdNUYM, PdN7BM)
With B2, in “purified protein”, the Michaelis-Menten constant (Km) turned out to be 1100 ± 200 µM.
